Measured values published in paper PMC3747585.

Columns and labels:
[1] = biological target: NT-647-labeled human C7 (human) (UniProt P10643); assay: MST
[2] = biological target: NT-647-labeled human C9 (human) (UniProt P02748); assay: MST
[3] = biological target: CspA (full-length CspA^26–251) from Borrelia burgdorferi (Borrelia burgdorferi); assay: ELISA

Sequence of factor H (P08603 19-1231): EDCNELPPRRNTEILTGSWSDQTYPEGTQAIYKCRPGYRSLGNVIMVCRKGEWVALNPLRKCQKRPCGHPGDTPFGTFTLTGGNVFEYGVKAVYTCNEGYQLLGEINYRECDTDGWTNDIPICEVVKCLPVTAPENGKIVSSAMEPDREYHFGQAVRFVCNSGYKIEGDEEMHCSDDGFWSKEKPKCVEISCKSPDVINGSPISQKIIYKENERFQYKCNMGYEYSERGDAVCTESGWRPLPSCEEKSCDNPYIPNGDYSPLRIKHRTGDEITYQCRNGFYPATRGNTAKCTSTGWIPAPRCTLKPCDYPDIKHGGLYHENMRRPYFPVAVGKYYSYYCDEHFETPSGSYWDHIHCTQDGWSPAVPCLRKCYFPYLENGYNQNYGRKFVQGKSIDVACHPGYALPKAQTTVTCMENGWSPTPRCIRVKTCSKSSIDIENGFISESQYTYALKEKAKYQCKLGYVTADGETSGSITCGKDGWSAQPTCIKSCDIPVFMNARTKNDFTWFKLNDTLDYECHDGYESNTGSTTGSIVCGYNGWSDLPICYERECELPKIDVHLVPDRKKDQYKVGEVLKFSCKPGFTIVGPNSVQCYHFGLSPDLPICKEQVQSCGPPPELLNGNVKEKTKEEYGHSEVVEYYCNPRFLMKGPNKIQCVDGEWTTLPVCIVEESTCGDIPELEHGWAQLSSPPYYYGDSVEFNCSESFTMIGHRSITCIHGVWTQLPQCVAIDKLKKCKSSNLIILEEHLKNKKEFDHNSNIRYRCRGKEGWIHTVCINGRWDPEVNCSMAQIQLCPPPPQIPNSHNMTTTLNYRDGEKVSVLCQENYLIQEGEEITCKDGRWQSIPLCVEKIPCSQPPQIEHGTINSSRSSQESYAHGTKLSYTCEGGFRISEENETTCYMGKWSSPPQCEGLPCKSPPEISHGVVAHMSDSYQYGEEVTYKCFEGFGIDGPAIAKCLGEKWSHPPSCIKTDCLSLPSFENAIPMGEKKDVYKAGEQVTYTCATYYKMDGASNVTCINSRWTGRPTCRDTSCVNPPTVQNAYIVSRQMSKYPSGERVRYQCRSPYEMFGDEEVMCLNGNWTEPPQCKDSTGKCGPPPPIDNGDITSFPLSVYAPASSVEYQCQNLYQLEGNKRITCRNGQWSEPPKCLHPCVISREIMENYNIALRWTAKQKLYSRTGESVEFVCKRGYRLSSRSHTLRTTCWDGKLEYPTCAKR

**Q.** Which results are given for “CspA (full-length CspA^26–251) from Borrelia burgdorferi (natural protein)”?
**A.** Kd [1]: 5.1 µM; Kd [2]: 3.4 µM

**Q.** With “factor H (from UniProt P08603 19-1231) (natural protein)” as the substance, how does the percent reduction of C7 binding to CspA by factor H at 5 µg/ml [3] read?
**A.** 17%

**Q.** And the percent reduction of C9 binding to CspA by factor H at 5 µg/ml [3]?
**A.** 23%

**Q.** Which percent reduction of binding by NaCl at 0.15 M [3] does the source give for “human terminal complement component C7 (from UniProt P10643 23-843) (natural protein)” here?
**A.** 60%

**Q.** What about the percent reduction of binding by heparin at 500 µg/ml [3] of the same substance?
**A.** 42%

**Q.** Which percent inhibition of binding by NaCl at 0.15 M [3] does the source give for “human terminal complement component C9 (from UniProt P02748 22-559) (natural protein)” here?
**A.** 35%
